# Reference: the supplement of paper PMC12764529
# ± gives the half width of the 95% confidence interval.
# Tests used:
# [1] = folding stability dG unfold from trypsin proteolysis; higher = more stable
# Procedure, shortened: (§1)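 Designed mini-proteins (under 80 residues, no cysteine) in a PA-tagged cDNA display construct were digested with trypsin and chymotrypsin. Each protease was used at 11 concentrations (threefold dilutions) plus a no-protease condition, followed by sequencing. K50 was inferred by Bayesian fitting of sequencing counts, and unfolding free energy was derived against a sequence-predicted unfolded-state K50 and a shared folded-state K50, per protease or combined. Only designs with AlphaFold2 dimer inter-PAE above 15 were kept.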
# [2] = folding stability dG unfold (combined trypsin and chymotrypsin); higher = more stable
# Procedure, shortened: as §1
# [3] = folding stability dG unfold from chymotrypsin proteolysis; higher = more stable
# Procedure, shortened: as §1
sequence,measurement,setting,value
SAGGFKIEYTGNYYTIELPGLKIMVNPNMGMMRIKLPGNGKKITIPVPMNNWEDMLDAVKEILKELGSAGGS [r8_447_TrROS],folding stability dG unfold,[1],3.17 ± 0.17 kcal/mol
same,folding stability dG unfold,[2],2.56 ± 0.26 kcal/mol
same,folding stability dG unfold,[3],2.18 ± 0.099 kcal/mol
SAGGFKLKIDDIEFHDDYLVIRLKIEVPVNDQTMKFELTLIIPVPPPPPPKPPVDPEEYRDPDGKWHSAGGS [r8_234_TrROS],folding stability dG unfold,[1],2.19 ± 0.11 kcal/mol
same,folding stability dG unfold,[2],2.63 ± 0.24 kcal/mol
same,folding stability dG unfold,[3],2.9 ± 0.062 kcal/mol
SAGGFNRKVTVRVKVPATGEEFEFEFDFEGLTLEEIKRKIKEEIKKKGIVLKPDNPVVIEITDLEEDPASAG [r5_230_JUSTAS],folding stability dG unfold,[1],4.13 ± 0.34 kcal/mol
same,folding stability dG unfold,[2],3.98 ± 0.33 kcal/mol
same,folding stability dG unfold,[3],3.86 ± 0.21 kcal/mol
SAGGGAEELAKALAEELEKEGLIKEVEVEVRVRPDGSIEVRIKVKVEPPPPPPPVTVVRDENGEERLLSAGG [r13_957_TrROS_Hall],folding stability dG unfold,[1],0.972 ± 0.097 kcal/mol
same,folding stability dG unfold,[2],1.11 ± 0.31 kcal/mol
same,folding stability dG unfold,[3],0.601 ± 0.12 kcal/mol
SAGGGAIVRARFPRDIPELVRAYKILEAAAPDEEVTLLLPEKPVVVVRREKVGDYFLLEVRLPEDLLSAGGS [r16_404_TrMRF],folding stability dG unfold,[1],0.647 ± 0.2 kcal/mol
same,folding stability dG unfold,[2],0.609 ± 0.12 kcal/mol
same,folding stability dG unfold,[3],0.546 ± 0.15 kcal/mol
SAGGGALSPEEALGKPVTALVEVGGKPYLATYTLKPTPDGWLLEVTVYDPSTGTPTTRTLDWDDVEFESAGG [r13_289_TrMRF],folding stability dG unfold,[1],1.09 ± 0.025 kcal/mol
same,folding stability dG unfold,[2],1.87 ± 0.04 kcal/mol
same,folding stability dG unfold,[3],2.232 ± 0.022 kcal/mol
SAGGGAMHTVTITDEAGNVTTFTLPTDLDTLKEKIKELFPEKKYEIKKVTRVPGNPGLTTITVKVPKDSAGG [r13_832_JUSTAS],folding stability dG unfold,[1],1.28 ± 0.039 kcal/mol
same,folding stability dG unfold,[2],1.68 ± 0.11 kcal/mol
same,folding stability dG unfold,[3],1.89 ± 0.064 kcal/mol
SAGGGASLNSIKISKIPGLNKYKITLPTSAAPGTEVTITINNPKGKETLTFTLPVKPLPGNTVVLLLSAGGS [r8_195_JUSTAS],folding stability dG unfold,[1],1.46 ± 0.045 kcal/mol
same,folding stability dG unfold,[2],1.74 ± 0.066 kcal/mol
same,folding stability dG unfold,[3],1.74 ± 0.059 kcal/mol
SAGGGEYKVEVVTFPDGSKVVLVTLPNGDKVALPVPVTRTVPVLDKTGPLKKPGPVEVAALVLVSSNGSAGG [r13_236_TrMRF],folding stability dG unfold,[1],0.636 ± 0.035 kcal/mol
same,folding stability dG unfold,[2],0.956 ± 0.076 kcal/mol
same,folding stability dG unfold,[3],1.17 ± 0.12 kcal/mol
SAGGGFDLEFVTPDGRRIRVEVKRILSYDPEKGYLVMEVKVTIYHPDKPIEIDGIIVFPPGFPPGAGGSAGG [r13_823_TrMRF],folding stability dG unfold,[1],3.6 ± 0.13 kcal/mol
same,folding stability dG unfold,[2],3.85 ± 0.12 kcal/mol
same,folding stability dG unfold,[3],4 ± 0.17 kcal/mol
SAGGGGSTTQPQQVELPGDRTATVTLHTHGDTPTATITLSEKESELGTVTVPVASTAEVAAAVAALASAGGS [r16_55_JUSTAS],folding stability dG unfold,[1],1.26 ± 0.028 kcal/mol
same,folding stability dG unfold,[2],0.973 ± 0.097 kcal/mol
same,folding stability dG unfold,[3],0.683 ± 0.029 kcal/mol
SAGGGIVEKIKKIIKEAGYKAKVEESEDGIHIVVEAPIEAGKVLEKKIKEATGKEIKIEYVPPGKGASAGGS [r16_514_TrMRF],folding stability dG unfold,[1],2.21 ± 0.19 kcal/mol
same,folding stability dG unfold,[2],3.25 ± 0.16 kcal/mol
same,folding stability dG unfold,[3],3.54 ± 0.25 kcal/mol
SAGGGKKNKIVAVDEEGNEIVFDIDADIDTVFEAIKKLFPNKEIEVDEVIEFEGYPDYVVVFVKIPKKSAGG [r13_832_TrMRF],folding stability dG unfold,[1],1.72 ± 0.14 kcal/mol
same,folding stability dG unfold,[2],2.22 ± 0.22 kcal/mol
same,folding stability dG unfold,[3],2.59 ± 0.069 kcal/mol
SAGGGKPVNILIKKPNEIKIIPIPVVKIEPLESPDKLYIIFEDGYIMEFDPKTLELLSIEKVKPIEEASAGG [r13_636_TrMRF],folding stability dG unfold,[1],1.35 ± 0.11 kcal/mol
same,folding stability dG unfold,[2],1.69 ± 0.3 kcal/mol
same,folding stability dG unfold,[3],1.94 ± 0.066 kcal/mol
SAGGGKTVVTTTPDGRTVVAAELPDGSVVAVATFPDAPVLATYNPETKTVTVAFFKGGKLVATASDSSSAGG [r13_748_TrMRF],folding stability dG unfold,[1],0.698 ± 0.062 kcal/mol
same,folding stability dG unfold,[2],0.837 ± 0.13 kcal/mol
same,folding stability dG unfold,[3],0.855 ± 0.11 kcal/mol
SAGGGLIRDAIENNPELRELLKEGYVLYVTYPDGKSGVIEINNASASEIDDAIRAHFPGEVELEFGSSAGGS [r16_655_TrMRF],folding stability dG unfold,[1],1.04 ± 0.028 kcal/mol
same,folding stability dG unfold,[2],0.752 ± 0.046 kcal/mol
same,folding stability dG unfold,[3],0.389 ± 0.048 kcal/mol
SAGGGMAPDTPVTVRIEITLPDGTRRVLDIPGRAGDPALLEAIAAELREEGYEVREIRPVEGRIVVASAGGS [r8_497_JUSTAS],folding stability dG unfold,[1],1.96 ± 0.028 kcal/mol
same,folding stability dG unfold,[2],2.53 ± 0.081 kcal/mol
same,folding stability dG unfold,[3],2.81 ± 0.08 kcal/mol
SAGGGMEPKPVEVTLTIPKGTVTPEDKVPVSTIAKLLGIPEDTEVTVEKITPVPNSDTELVTLTIVTSAGGS [r16_165_JUSTAS],folding stability dG unfold,[1],0.412 ± 0.023 kcal/mol
same,folding stability dG unfold,[2],0.615 ± 0.12 kcal/mol
same,folding stability dG unfold,[3],0.571 ± 0.074 kcal/mol
SAGGGMIERYDGKIVIKLKGPNGKEWTSTTEPLPDGTARITVTHPDKVLYLEHTPEGISVVSEVSNEKSAGG [r13_619_JUSTAS],folding stability dG unfold,[1],-0.757 ± 0.33 kcal/mol
same,folding stability dG unfold,[2],-0.411 ± 0.22 kcal/mol
same,folding stability dG unfold,[3],-0.426 ± 0.45 kcal/mol
SAGGGMMTVTVTRVEREKPAGDEYLEKVLVTLPDSTLEATLTLKEKEEADKPPSVTVVPLEAVLALLASAGG [r13_540_JUSTAS],folding stability dG unfold,[1],0.927 ± 0.019 kcal/mol
same,folding stability dG unfold,[2],0.57 ± 0.11 kcal/mol
same,folding stability dG unfold,[3],-0.274 ± 0.31 kcal/mol
SAGGGMPTSIVLPLTVSPENVEEAIAALKAQLEAQGYTLLEVNPVKDGNTWKLRAVFRAPDGTLVTDESAGG [r13_421_JUSTAS],folding stability dG unfold,[1],3.11 ± 0.079 kcal/mol
same,folding stability dG unfold,[2],3.26 ± 0.059 kcal/mol
same,folding stability dG unfold,[3],3.313 ± 0.017 kcal/mol
